Measured values taken from patent publication US20230257460A1 (Eli Lilly, published 2023).
One block for each binder: values may come before it.

How the values were obtained:
Human INSL5 [1] = target: T1, Human INSL5 (human); test: SPR (Biacore 8K), antibody captured on Protein A, INSL5 peptide as analyte, 25 C
T1 construct: also called human insulin-like peptide-5; human INSL5 peptide
T1 chain 1: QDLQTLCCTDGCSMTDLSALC
T1 chain 2: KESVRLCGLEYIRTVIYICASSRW
Experimental: (§1) Human INSL5 (Phoenix Pharmaceuticals Cat #035-70A) and mouse INSL5 (Phoenix Pharmaceuticals 035-40) are reconstituted at 0.5 (99 μM) or 1 mg/mL (195 μM) in DMSO, respectively. […] The antibodies of Example 1, 2, or a negative control are prepared by diluting them to 1 μg/mL in 1×HBS-EP+ buffer.
(§2) The experiment is conducted at 25° C. as well as at 37° C. and initiated with 5 start-up cycles of injecting 1×HBS-EP+ buffer. Then in each cycle, the antibody is captured onto flow cell 2 of channels 1-8 at 10 μL/min for 20 seconds. Next, 180 μL of the respective INSL5 peptide sample is individually injected across flow cells 1 and 2 for 180 seconds at 60 μL/min and then let dissociate for 1200 seconds at 60 μL/min flow rate. The surface is regenerated by injecting two 15 second pulses of 10 mM glycine-HCl pH 1.5 (BR-1003-54) at 30 μL/min. After a stabilization period of 60 seconds at a flow rate of 60 μL/min the next cycle is started.
(§3) The resulting sensorgrams are analyzed using Biacore 8K Evaluation Software). 1:1 binding kinetics model fitting is used to calculate the binding kinetic parameters association rate (ka), dissociation rate (kd), and equilibrium dissociation constant (KD).

Mouse INSL5 [2] = target: T2, Mouse INSL5 (mouse); test: as above
T2 construct: Bought two-chain peptide (Phoenix Pharmaceuticals Cat #035-40); also called mouse insulin-like peptide-5; mouse INSL5 peptide
T2 chain 1: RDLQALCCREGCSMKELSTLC
T2 chain 2: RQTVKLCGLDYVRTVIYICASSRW
Experimental: as §1, §2, §3

Human INSL5 [3] = target: T1, Human INSL5; test: SPR (Biacore 8K), antibody captured on Protein A, INSL5 peptide as analyte, 37 C
Experimental: as §1, §2, §3

Mouse INSL5 [4] = target: T2, Mouse INSL5; test: as above
Experimental: as §1, §2, §3

- Kd (Human INSL5 [1]): 0.041 nM
- koff (Human INSL5 [1]): 0.00036 s⁻¹
- kon (Human INSL5 [1]): 8.8e+06 M⁻¹ s⁻¹
- Kd (Mouse INSL5 [2]): 0.0046 nM
- koff (Mouse INSL5 [2]): 5.4e-05 s⁻¹
- kon (Mouse INSL5 [2]): 1.2e+07 M⁻¹ s⁻¹
- Kd (Human INSL5 [3]): 0.11 nM
- koff (Human INSL5 [3]): 0.0026 s⁻¹
- kon (Human INSL5 [3]): 2.4e+07 M⁻¹ s⁻¹
- Kd (Mouse INSL5 [4]): 0.0067 nM
- koff (Mouse INSL5 [4]): 0.00015 s⁻¹
- kon (Mouse INSL5 [4]): 2.3e+07 M⁻¹ s⁻¹
B1: Antibody I (antibody, V domains shown)
VH: QSVEESGGRLVTPGTPLTLTCTASGFSLSSYDMGWVRQTPGEGLEWVGTISAGGYTYYAHWAKGRFTISKSSTTVDLKMTSLTTEDTATYFCARERWNYDRSGGAGAGYFDLWGPGTLVTVSS
VL: DVVMTQTASPVSAAVGGTVTINCQASQSITSSYLSWYQQKPGQPPKLLIYPAANLASGVPSRFKGSGSGTQFTLTISGVQCDDAATYYCLYGYFSSSIDFAFGGGTEVVVRG

- Kd (Human INSL5 [1]): 0.021 nM
- koff (Human INSL5 [1]): 0.00034 s⁻¹
- kon (Human INSL5 [1]): 1.6e+07 M⁻¹ s⁻¹
- Kd (Mouse INSL5 [2]): 0.0061 nM
- koff (Mouse INSL5 [2]): 0.00011 s⁻¹
- kon (Mouse INSL5 [2]): 1.8e+07 M⁻¹ s⁻¹
- Kd (Human INSL5 [3]): 0.081 nM
- koff (Human INSL5 [3]): 0.0033 s⁻¹
- kon (Human INSL5 [3]): 4e+07 M⁻¹ s⁻¹
- Kd (Mouse INSL5 [4]): 0.014 nM
- koff (Mouse INSL5 [4]): 0.00072 s⁻¹
- kon (Mouse INSL5 [4]): 5.1e+07 M⁻¹ s⁻¹
B2: Antibody II (antibody, V domains shown)
VH: QSVEESGGGLVTPGGSLTLTCTVSGIDLTTYAMGWVRQAPGEGLEWIGIIGGGGRTYYAAWAKGRFTISKTSTTVDLRITSPATEDTATYFCVRGGDFFDLWGPGTLVTVSS
VL: AQVLTQTPASVSAAVGGTVTIKCQASEDISKYLSWYQQKPGQRPKLLIYYVSNLEFGVPSRFKGSGSGTEYTLTISDLECDDAATYYCHQGYTGVNVENVFGGGTEVVVRG
